This note sets out measurements from patent publication US9046519.

For test [1], the target named is TSHR Arg255 to Asp (human) (UniProt P16473). Kind of test: cell-based or functional assay.
The target in test [2] is human thyrotropin receptor (TSHR), wild type, full length (human) (UniProt P16473). The test can be described thus: cell-based or functional assay.

As for hMAb TSHR1 IgG (antibody), in test [1], the Cyclic AMP produced (fmol/cell well), hMAb TSHR1 IgG 1 ng/mL (fmol/cell well) was found to be 940; the Cyclic AMP produced (fmol/cell well), hMAb TSHR1 IgG 10 ng/mL (fmol/cell well) turned out to be 3160; the Cyclic AMP produced (fmol/cell well), hMAb TSHR1 IgG 100 ng/mL (fmol/cell well) turned out to be 5700; the Cyclic AMP produced (fmol/cell well), hMAb TSHR1 IgG 1 µg/mL (fmol/cell well) is 5030. In test [1], this substance showed a Mutated/Wild type (%), hMAb TSHR1 IgG 1 ng/mL of 19%; a Mutated/Wild type (%), hMAb TSHR1 IgG 10 ng/mL of 19%; a Mutated/Wild type (%), hMAb TSHR1 IgG 100 ng/mL of 37%. In test [2], this substance displayed a Cyclic AMP produced (fmol/cell well), hMAb TSHR1 IgG 1 ng/mL (fmol/cell well) of 4860; a Cyclic AMP produced (fmol/cell well), hMAb TSHR1 IgG 10 ng/mL (fmol/cell well) of 16200; a Cyclic AMP produced (fmol/cell well), hMAb TSHR1 IgG 100 ng/mL (fmol/cell well) of 15400; a Cyclic AMP produced (fmol/cell well), hMAb TSHR1 IgG 1 µg/mL (fmol/cell well) of 16300.
